# System: Escherichia coli TOP10
# Assay: shrunken log2 fold change of peptide-encoding DNA abundance (4.5 h post-induction vs induction); higher = less antimicrobial activity (less host growth inhibition)
# Settings: time post-induction: 4.5 h; library: site-saturation at positions 5, 18, 19, 20
# 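Note: peptides expressed intracellularly from a pBAD plasmid library in pooled LB shake-flask culture, induced with 0.3% L-arabinose, DNA abundance read by NGS, three biological replicates, DESeq2 with apeglm shrinkage.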
row,Sequence,shrunken log2 fold change
1,RRIRYRPPRLPRPRPRPQWKPRP,-0.01
2,RRIRYRPPRLPRPRPRPQWQPRP,-0.00114
3,RRIRYRPPRLPRPRPRPQYKPRP,-0.179
4,RRIRYRPPRLPRPRPRPRFFPRP,-0.0565
5,RRIRYRPPRLPRPRPRPRFRPRP,-0.213
6,RRIRYRPPRLPRPRPRPRFTPRP,-0.17
7,RRIRYRPPRLPRPRPRPRFYPRP,-0.45
8,RRIRYRPPRLPRPRPRPRGDPRP,0.316
9,RRIRYRPPRLPRPRPRPRGFPRP,-0.0875
10,RRIRYRPPRLPRPRPRPRGPPRP,0.127
11,RRIRYRPPRLPRPRPRPRHKPRP,-0.208
12,RRIRYRPPRLPRPRPRPRHQPRP,-0.111
13,RRIRYRPPRLPRPRPRPRICPRP,0.00835
14,RRIRYRPPRLPRPRPRPRIPPRP,-0.353
15,RRIRYRPPRLPRPRPRPRKFPRP,-1.72
16,RRIRYRPPRLPRPRPRPRKKPRP,-0.0257
17,RRIRYRPPRLPRPRPRPRKMPRP,-0.178
18,RRIRYRPPRLPRPRPRPRLKPRP,3.7
19,RRIRYRPPRLPRPRPRPRMGPRP,-0.0782
20,RRIRYRPPRLPRPRPRPRMQPRP,-0.673
21,RRIRYRPPRLPRPRPRPRMTPRP,-0.131
22,RRIRYRPPRLPRPRPRPRNIPRP,-0.00665
23,RRIRYRPPRLPRPRPRPRNQPRP,-0.32
24,RRIRYRPPRLPRPRPRPRPQPRP,0.438
25,RRIRYRPPRLPRPRPRPRPVPRP,0.0983

row,Sequence,shrunken log2 fold change
1,RRIRYRPPRLPRPRPRPRQDPRP,-0.216
2,RRIRYRPPRLPRPRPRPRQNPRP,0.345
3,RRIRYRPPRLPRPRPRPRQPPRP,0.137
4,RRIRYRPPRLPRPRPRPRRIPRP,0.014
5,RRIRYRPPRLPRPRPRPRSIPRP,-0.276
6,RRIRYRPPRLPRPRPRPRVAPRP,0.0343
7,RRIRYRPPRLPRPRPRPRYMPRP,-0.33
8,RRIRYRPPRLPRPRPRPSAHPRP,-0.117
9,RRIRYRPPRLPRPRPRPSDLPRP,-1.92
10,RRIRYRPPRLPRPRPRPSEHPRP,-0.488
11,RRIRYRPPRLPRPRPRPSEYPRP,-0.431
12,RRIRYRPPRLPRPRPRPSFEPRP,-0.689
13,RRIRYRPPRLPRPRPRPSGKPRP,-0.447
14,RRIRYRPPRLPRPRPRPSHAPRP,-0.242
15,RRIRYRPPRLPRPRPRPSHIPRP,-1.45
16,RRIRYRPPRLPRPRPRPSHTPRP,-1.39
17,RRIRYRPPRLPRPRPRPSIKPRP,-0.952
18,RRIRYRPPRLPRPRPRPSITPRP,-0.857
19,RRIRYRPPRLPRPRPRPSKQPRP,-0.137
20,RRIRYRPPRLPRPRPRPSLGPRP,-0.297
21,RRIRYRPPRLPRPRPRPSLIPRP,-1.15
22,RRIRYRPPRLPRPRPRPSLSPRP,-0.623
23,RRIRYRPPRLPRPRPRPSMQPRP,-0.288
24,RRIRYRPPRLPRPRPRPSNKPRP,-0.953
25,RRIRYRPPRLPRPRPRPSPKPRP,-0.105

row,Sequence,shrunken log2 fold change
1,RRIRYRPPRLPRPRPRPSPTPRP,-0.167
2,RRIRYRPPRLPRPRPRPSQCPRP,-0.115
3,RRIRYRPPRLPRPRPRPSQFPRP,-0.257
4,RRIRYRPPRLPRPRPRPSQKPRP,-0.359
5,RRIRYRPPRLPRPRPRPSSQPRP,-0.261
6,RRIRYRPPRLPRPRPRPSTGPRP,-0.0197
7,RRIRYRPPRLPRPRPRPSTSPRP,1.42
8,RRIRYRPPRLPRPRPRPSVTPRP,-0.421
9,RRIRYRPPRLPRPRPRPSWSPRP,-0.179
10,RRIRYRPPRLPRPRPRPSYRPRP,-0.0896
11,RRIRYRPPRLPRPRPRPTCVPRP,-0.503
12,RRIRYRPPRLPRPRPRPTDYPRP,-0.746
13,RRIRYRPPRLPRPRPRPTHFPRP,0.262
14,RRIRYRPPRLPRPRPRPTHPPRP,-0.311
15,RRIRYRPPRLPRPRPRPTIPPRP,-0.572
16,RRIRYRPPRLPRPRPRPTITPRP,-0.665
17,RRIRYRPPRLPRPRPRPTKQPRP,0.0156
18,RRIRYRPPRLPRPRPRPTKTPRP,-0.0705
19,RRIRYRPPRLPRPRPRPTKWPRP,-0.489
20,RRIRYRPPRLPRPRPRPTNNPRP,-1.14
21,RRIRYRPPRLPRPRPRPTPTPRP,0.451
22,RRIRYRPPRLPRPRPRPTYDPRP,-0.73
23,RRIRYRPPRLPRPRPRPVAQPRP,0.128
24,RRIRYRPPRLPRPRPRPVAVPRP,3.17
25,RRIRYRPPRLPRPRPRPVCHPRP,-0.583

row,Sequence,shrunken log2 fold change
1,RRIRYRPPRLPRPRPRPVCRPRP,-0.0607
2,RRIRYRPPRLPRPRPRPVDAPRP,-0.42
3,RRIRYRPPRLPRPRPRPVDTPRP,-0.204
4,RRIRYRPPRLPRPRPRPVEDPRP,-0.0671
5,RRIRYRPPRLPRPRPRPVENPRP,-0.0898
6,RRIRYRPPRLPRPRPRPVETPRP,-0.0299
7,RRIRYRPPRLPRPRPRPVFMPRP,-0.484
8,RRIRYRPPRLPRPRPRPVGCPRP,-0.284
9,RRIRYRPPRLPRPRPRPVGEPRP,0.207
10,RRIRYRPPRLPRPRPRPVHDPRP,-0.372
11,RRIRYRPPRLPRPRPRPVHRPRP,-0.462
12,RRIRYRPPRLPRPRPRPVHVPRP,-1.35
13,RRIRYRPPRLPRPRPRPVINPRP,-0.338
14,RRIRYRPPRLPRPRPRPVIQPRP,-0.607
15,RRIRYRPPRLPRPRPRPVMQPRP,-0.315
16,RRIRYRPPRLPRPRPRPVPMPRP,-0.158
17,RRIRYRPPRLPRPRPRPVPWPRP,0.277
18,RRIRYRPPRLPRPRPRPVQKPRP,0.0112
19,RRIRYRPPRLPRPRPRPVQVPRP,0.0039
20,RRIRYRPPRLPRPRPRPVRVPRP,0.0746
21,RRIRYRPPRLPRPRPRPVTDPRP,-0.418
22,RRIRYRPPRLPRPRPRPVTMPRP,-0.688
23,RRIRYRPPRLPRPRPRPVVLPRP,-0.397
24,RRIRYRPPRLPRPRPRPVWCPRP,-0.0399
25,RRIRYRPPRLPRPRPRPVWMPRP,-0.283

row,Sequence,shrunken log2 fold change
1,RRIRYRPPRLPRPRPRPVYTPRP,-0.499
2,RRIRYRPPRLPRPRPRPWAHPRP,-0.324
3,RRIRYRPPRLPRPRPRPWASPRP,-0.154
4,RRIRYRPPRLPRPRPRPWCIPRP,0.0404
5,RRIRYRPPRLPRPRPRPWCMPRP,-0.383
6,RRIRYRPPRLPRPRPRPWDAPRP,-0.796
7,RRIRYRPPRLPRPRPRPWDVPRP,-0.114
8,RRIRYRPPRLPRPRPRPWEEPRP,-0.0122
9,RRIRYRPPRLPRPRPRPWERPRP,0.0306
10,RRIRYRPPRLPRPRPRPWLDPRP,-0.225
11,RRIRYRPPRLPRPRPRPWLNPRP,-0.367
12,RRIRYRPPRLPRPRPRPWLSPRP,-0.205
13,RRIRYRPPRLPRPRPRPWMAPRP,-0.288
14,RRIRYRPPRLPRPRPRPWMTPRP,-0.663
15,RRIRYRPPRLPRPRPRPWQQPRP,-0.273
16,RRIRYRPPRLPRPRPRPWTTPRP,-0.000803
17,RRIRYRPPRLPRPRPRPWVDPRP,-0.445
18,RRIRYRPPRLPRPRPRPWWHPRP,-0.757
19,RRIRYRPPRLPRPRPRPWWQPRP,-0.00151
20,RRIRYRPPRLPRPRPRPWYYPRP,-0.00865
21,RRIRYRPPRLPRPRPRPYAVPRP,-0.85
22,RRIRYRPPRLPRPRPRPYCPPRP,-0.848
23,RRIRYRPPRLPRPRPRPYCVPRP,-1.71
24,RRIRYRPPRLPRPRPRPYDKPRP,-1.24
25,RRIRYRPPRLPRPRPRPYDTPRP,-0.149

row,Sequence,shrunken log2 fold change
1,RRIRYRPPRLPRPRPRPYDWPRP,-0.886
2,RRIRYRPPRLPRPRPRPYELPRP,-0.0164
3,RRIRYRPPRLPRPRPRPYFCPRP,-1.09
4,RRIRYRPPRLPRPRPRPYFHPRP,-1.4
5,RRIRYRPPRLPRPRPRPYGDPRP,-0.525
6,RRIRYRPPRLPRPRPRPYHEPRP,-0.194
7,RRIRYRPPRLPRPRPRPYHMPRP,-0.00245
8,RRIRYRPPRLPRPRPRPYHPPRP,-0.152
9,RRIRYRPPRLPRPRPRPYKHPRP,-1.18
10,RRIRYRPPRLPRPRPRPYKKPRP,-0.00195
11,RRIRYRPPRLPRPRPRPYLCPRP,-1.35
12,RRIRYRPPRLPRPRPRPYLGPRP,-0.261
13,RRIRYRPPRLPRPRPRPYMTPRP,-0.271
14,RRIRYRPPRLPRPRPRPYNFPRP,-0.246
15,RRIRYRPPRLPRPRPRPYNSPRP,-0.102
16,RRIRYRPPRLPRPRPRPYPAPRP,-0.641
17,RRIRYRPPRLPRPRPRPYQSPRP,0.0169
18,RRIRYRPPRLPRPRPRPYRPPRP,-0.0134
19,RRIRYRPPRLPRPRPRPYSEPRP,-0.199
20,RRIRYRPPRLPRPRPRPYTFPRP,0.041
21,RRIRYRPPRLPRPRPRPYVCPRP,-1.14
22,RRIRYRPPRLPRPRPRPYVQPRP,-1.25
23,RRIRYRPPRLPRPRPRPYWGPRP,-0.0899
24,RRIRYRPPRLPRPRPRPYWPPRP,-0.0534
25,RRIRYRPPRLPRPRPRPYYTPRP,-0.0958
